Experimental data: PMC4914081
Changes are numbered by the printed parent chain.

Columns and labels:
Cac1C (C-terminal WHD) [1] = target: T1, Cac1C (C-terminal WHD) (budding yeast, UniProt Q12495 520-606); experiment: EMSA
Mmp150C 4KE = target: T2, Mmp150C 4KE (mouse, UniProt Q9QWF0 706-827, K768E;R770E;K772E;R773E); experiment: EMSA
T2 sequence: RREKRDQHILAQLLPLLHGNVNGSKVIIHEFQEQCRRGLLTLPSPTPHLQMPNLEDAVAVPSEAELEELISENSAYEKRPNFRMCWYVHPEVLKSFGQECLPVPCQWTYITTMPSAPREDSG

Mmp150C = target: T3, Mmp150C (mouse, UniProt Q9QWF0 706-827); experiment: EMSA
T3 sequence: T2 sequence with E63K, E65R, E67K, E68R

Hsp150C = Hsp150C (human, UniProt Q13111 727-854); experiment: EMSA
Cac1C K553E = Cac1C K553E (budding yeast, UniProt Q12495 520-606, K553E); experiment: EMSA
Cac1C K577E = Cac1C K577E (budding yeast, UniProt Q12495 520-606, K577E); experiment: EMSA
Cac1C (C-terminal WHD) [2] = target: T1, Cac1C (C-terminal WHD); experiment: EMSA; remark: listed apart in the source
Cac1C K583E = Cac1C K583E (budding yeast, UniProt Q12495 520-606, K583E); experiment: EMSA
Cac1C (C-terminal WHD) [3] = target: T1, Cac1C (C-terminal WHD); experiment: pull-down
[4] = target: Cac1 (in CAF-1);GST-Cac2;Cac3 (budding yeast (Saccharomyces …, UniProt Q12495;Q04199;P13712 91-606;1-438;1-422, ||)); experiment: pull-down
GST-Cac2 = GST-Cac2 (budding yeast, UniProt Q04199 1-438); experiment: pull-down
Cac1C (C-terminal WHD) [5] = target: T1, Cac1C (C-terminal WHD); experiment: EMSA; remark: listed apart in the source
Cac1C (C-terminal WHD) [6] = target: T1, Cac1C (C-terminal WHD); experiment: EMSA; remark: listed apart in the source

T1 sequence (Q12495 520-606): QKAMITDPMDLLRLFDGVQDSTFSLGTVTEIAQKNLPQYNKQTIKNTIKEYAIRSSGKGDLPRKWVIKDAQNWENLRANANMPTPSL
Chain of Cac1C K553E (Q12495 520-606 K553E): as the sequence (Q12495 520-606) above, with K34E counted along it
Chain of Cac1 (in CAF-1);GST-Cac2;Cac3 (budding yeast (Q12495 91-606, chain 1 of 3): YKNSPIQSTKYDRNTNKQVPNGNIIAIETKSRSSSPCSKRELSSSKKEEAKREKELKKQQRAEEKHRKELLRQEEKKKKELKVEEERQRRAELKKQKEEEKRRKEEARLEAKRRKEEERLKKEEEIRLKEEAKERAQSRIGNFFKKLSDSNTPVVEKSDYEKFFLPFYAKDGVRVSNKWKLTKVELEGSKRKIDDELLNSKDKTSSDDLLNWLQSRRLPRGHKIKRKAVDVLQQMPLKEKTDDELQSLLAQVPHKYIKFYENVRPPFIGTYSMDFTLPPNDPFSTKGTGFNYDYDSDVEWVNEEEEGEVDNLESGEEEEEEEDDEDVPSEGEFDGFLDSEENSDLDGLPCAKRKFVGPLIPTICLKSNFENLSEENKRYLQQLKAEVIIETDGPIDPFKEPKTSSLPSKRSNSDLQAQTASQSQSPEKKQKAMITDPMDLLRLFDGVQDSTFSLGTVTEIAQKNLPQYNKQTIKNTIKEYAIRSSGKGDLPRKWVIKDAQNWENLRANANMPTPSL
Chain of Cac1 (in CAF-1);GST-Cac2;Cac3 (budding yeast (Q04199 1-438, chain 2 of 3): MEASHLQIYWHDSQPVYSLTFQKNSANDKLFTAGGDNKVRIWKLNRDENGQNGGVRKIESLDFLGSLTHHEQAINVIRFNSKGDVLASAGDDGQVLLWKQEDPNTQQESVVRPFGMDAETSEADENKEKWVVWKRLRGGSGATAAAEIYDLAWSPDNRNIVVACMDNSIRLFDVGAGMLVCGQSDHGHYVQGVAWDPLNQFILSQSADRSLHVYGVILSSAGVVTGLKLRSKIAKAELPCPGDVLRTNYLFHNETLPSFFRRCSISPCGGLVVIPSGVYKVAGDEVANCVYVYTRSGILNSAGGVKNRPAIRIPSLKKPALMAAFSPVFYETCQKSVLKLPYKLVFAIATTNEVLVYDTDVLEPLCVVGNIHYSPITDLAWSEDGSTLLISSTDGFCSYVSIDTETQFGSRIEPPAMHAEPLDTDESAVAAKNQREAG
Chain of Cac1 (in CAF-1);GST-Cac2;Cac3 (budding yeast (P13712 whole entry, chain 3 of 3): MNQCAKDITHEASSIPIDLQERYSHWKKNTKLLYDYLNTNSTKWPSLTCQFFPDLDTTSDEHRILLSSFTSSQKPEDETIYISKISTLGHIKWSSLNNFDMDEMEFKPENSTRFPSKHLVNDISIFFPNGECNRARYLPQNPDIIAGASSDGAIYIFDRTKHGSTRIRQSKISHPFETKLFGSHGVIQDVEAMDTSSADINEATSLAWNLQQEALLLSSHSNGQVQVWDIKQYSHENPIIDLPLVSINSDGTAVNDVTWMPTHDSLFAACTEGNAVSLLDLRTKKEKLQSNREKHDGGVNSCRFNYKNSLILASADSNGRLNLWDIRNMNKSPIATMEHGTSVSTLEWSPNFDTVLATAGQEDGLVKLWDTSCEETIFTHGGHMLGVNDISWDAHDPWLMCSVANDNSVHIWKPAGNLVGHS
Chain of GST-Cac2 (Q04199 1-438): as the sequence (Q04199 1-438, chain 2 of 3) above
Chain of Cac1C K583E (Q12495 520-606 K583E): as the sequence (Q12495 520-606) above, with K64E counted along it
Chain of Cac1C K577E (Q12495 520-606 K577E): as the sequence (Q12495 520-606) above, with K58E counted along it
Chain of Hsp150C (Q13111 727-854): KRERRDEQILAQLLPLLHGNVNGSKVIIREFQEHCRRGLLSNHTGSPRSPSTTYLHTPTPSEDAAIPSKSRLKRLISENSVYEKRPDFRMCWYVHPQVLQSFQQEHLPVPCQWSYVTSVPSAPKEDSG

B1: GC-rich (dsDNA)
DNA 1: ATCGCCCGCGCA
DNA 2: TGCGCGGGCGAT
**Q.** Does B1 bind (Cac1C (C-terminal WHD) [1])?
**A.** binds

B2: 58 bp (dsDNA)
DNA 1: ATACATTTTATGACTGGAAACTTTTTTGTACAACACTCCAATAAACATTTTGATTTTA
DNA 2: TAAAATCAAAATGTTTATTGGAGTGTTGTACAAAAAAGTTTCCAGTCATAAAATGTAT
**Q.** Does B2 bind (Mmp150C 4KE)?
**A.** no binding

**Q.** Does B2 bind (Mmp150C)?
**A.** binds

**Q.** Does B2 bind (Hsp150C)?
**A.** binds

**Q.** Does B2 bind (Cac1C K553E)?
**A.** binds

**Q.** Does B2 bind (Cac1C K577E)?
**A.** binds

**Q.** Does B2 bind (Cac1C (C-terminal WHD) [2])?
**A.** binds

**Q.** Does B2 bind (Cac1C K583E)?
**A.** binds

B3: 58 bp biotinylated (dsDNA)
DNA 1: B2 DNA 1
DNA 2: B2 DNA 2
modifications: biotin on one strand
**Q.** Does B3 bind (Cac1C (C-terminal WHD) [3])?
**A.** binds

**Q.** Does B3 bind [4]?
**A.** binds

**Q.** Does B3 bind (GST-Cac2)?
**A.** no binding

**Q.** Does CAACAAAACCCCAACCCCAAACCACACC (ssDNA) [ssDNA] bind (Cac1C (C-terminal WHD) [5])?
**A.** binds

B4: AT-rich (dsDNA)
DNA 1: ATAATCGATATT
DNA 2: AATATCGATTAT
**Q.** Does B4 bind (Cac1C (C-terminal WHD) [6])?
**A.** binds
